Assay results as given in US20220088221A1, “SELF-ASSEMBLED PEPTIDE NANOPARTICLE AND USE THEREOF” (THE METHODIST HOSPITAL, priority 2019, published 2022).
“Also recorded” adds a separate entry of the source. Read-outs that look alike come from different tables or passages of the source.

Test: Self-assembly and size of CPP-peptide/TLR ligand nanoparticles (DLS, AFM)
Format: physicochemical
Method: FIG. 3A-1, FIG. 3A-2, FIG. 3B-1, FIG. 3B-2, FIG. 3C-1 and FIG. 3C-2 show self-assembled nanoparticles of TAT-TRP2 with CpG and MPLA (CM for short). […] AFM analysis indicates the size of cross section of the nanoparticle;
Grey bars indicate unstable/polydispersed complex with large PDI (PDI>0.5);
While both CPP-antigen peptide (10 mM) and CpG (10 mM) were soluble in PBS, but once mixed (1:1), precipitations or aggregates were observed. These aggregates were round nanoparticles, with a diameter of […] in size. The self-assembly was believed to occur through electric interaction of positively charged CPPs with negatively charged molecules, as well as hydrophobic interaction between the peptides themselves and monophosphoryl lipid A (MPLA).
MPLA and poly I:C were completely dissolved in sterile ultrapure water at a concentration of 1 mg/mL. To prepare the TAT-peptide vaccine nanoparticles, CpG, MPLA, and poly I:C of indicated volume (shown in Table 3) were mix thoroughly in ultrapure water or buffer by intensive vortex.
Self-assembly of the TAT-peptide nanoparticles was triggered by dropwise addition of TAT-peptide with ultrasonication in iced water bath within 1 min. […] The hydrophobic C-terminus of TRP2 peptide forms a hydrophobic core together with the MPLA via hydrophobic interactions.
Grey bars indicate unstable/polydispersed complexes with large PDI (PDI>0.5).

| Sequence | complex / nanoparticle formation with CpG and MPLA (AFM) | complex / nanoparticle formation with CpG and MPLA (AFM) (listed as TRP2) |
| --- | --- | --- |
| SYVDFFVWL [TRP2 peptide] | failed to form complex with CpG-MPLA and formed long fibers; also recorded: failed to form complexes | could not form a particle |
| YGRKKRRQRRRSYVDFFVWL [TAT-TRP2] | formed tight complexes |  |
